Test results taken from article PMC5323315 (Molecular microbiology, 2017).

Molecular target: T1, DnaAΔC with a C-terminal hexa-histidine tag (B. subtilis, UniProt P05648 1-355)
T1 sequence (looked up): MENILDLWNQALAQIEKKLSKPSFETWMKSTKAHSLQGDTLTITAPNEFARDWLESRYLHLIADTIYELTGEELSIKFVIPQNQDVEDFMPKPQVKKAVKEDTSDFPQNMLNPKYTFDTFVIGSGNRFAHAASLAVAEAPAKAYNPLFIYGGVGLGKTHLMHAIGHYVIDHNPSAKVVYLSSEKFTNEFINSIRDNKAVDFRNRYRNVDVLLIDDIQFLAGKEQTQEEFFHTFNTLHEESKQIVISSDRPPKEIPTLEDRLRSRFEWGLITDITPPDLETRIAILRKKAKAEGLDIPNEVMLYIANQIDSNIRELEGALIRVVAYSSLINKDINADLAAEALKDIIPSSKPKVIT
Assay: native gel or EMSA

B1: Rok with a C-terminal hexa-histidine tag (natural protein, B. subtilis, UniProt O34857 1-191, looked up)
chain: MFNEREALRLRLEQLNEAEVKVIREYQIERDKIYAKLRELDRNGSPSEIKKDFRSEKKPDSLPVLAELAAQEIRSYQPQSQQQSVQPQLQSISSLPAGIPDGTTRRRRGTARPGSKAAKLREAAIKTLKRHNAAIKSSELQKEIEKESGLEIPNMTTFMQSLIKMYPEVKKPYRGQYILEGEIESAESANE
B1: binds.
